Laboratory results as given in the array DNA melting data of Ke et al..

Assay: melting temperature; melt of duplexes
Details: sodium 0.0675 M; strand 1 µM

Substance | Tm
CGACGTGCCCCATGTGCTG+CAGCACATGGTGCACGTCG ((((((((.((((((((((+)))))))))).)))))))) | 56.7 °C
CGACGTGCGACATGTGCTG+CAGCACATTCCGCACGTCG (((((((((..((((((((+))))))))..))))))))) | 53.6 °C
CGACGTGCTCCATGTGCTG+CAGCACATAGGGCACGTCG ((((((((.(.((((((((+)))))))).).)))))))) | 52.3 °C
CGACGTGCCGTATGTGCTG+CAGCACATAGAGCACGTCG ((((((((..(((((((((+)))))))))..)))))))) | 53.1 °C
CGACGTGCGGCATGTGCTG+CAGCACATATCGCACGTCG (((((((((..((((((((+))))))))..))))))))) | 54.7 °C
CGACGTGCTGTATGTGCTG+CAGCACATGCAGCACGTCG ((((((((((.((((((((+)))))))).)))))))))) | 60.3 °C
CGACGTGCCAAATGTGCTG+CAGCACATACTGCACGTCG ((((((((...((((((((+))))))))...)))))))) | 47.4 °C
CGACGTGCTTGATGTGCTG+CAGCACATATGGCACGTCG ((((((((...((((((((+))))))))...)))))))) | 51 °C
CGACGTGCTGGATGTGCTG+CAGCACATGTTGCACGTCG ((((((((...((((((((+))))))))...)))))))) | 51.4 °C
CGACGTGCACCATGTGCTG+CAGCACATCTTGCACGTCG (((((((((..((((((((+))))))))..))))))))) | 45.7 °C
CGACGTGCCAAATGTGCTG+CAGCACATTACGCACGTCG ((((((((..(((((((((+)))))))))..)))))))) | 50.5 °C
CGACGTGCTAGATGTGCTG+CAGCACATGTTGCACGTCG ((((((((.(.((((((((+)))))))).).)))))))) | 52.2 °C
CGACGTGCGGAATGTGCTG+CAGCACATAAGGCACGTCG ((((((((...((((((((+))))))))...)))))))) | 51.5 °C
CGACGTGCTGAATGTGCTG+CAGCACATGAAGCACGTCG (((((((((..((((((((+))))))))..))))))))) | 59.3 °C
CGACGTGCTACATGTGCTG+CAGCACATACCGCACGTCG ((((((((...((((((((+))))))))...)))))))) | 47.5 °C
CGACGTGCTACATGTGCTG+CAGCACATAACGCACGTCG ((((((((...((((((((+))))))))...)))))))) | 49 °C
CGACGTGCTGCATGTGCTG+CAGCACATACCGCACGTCG ((((((((.(.((((((((+)))))))).).)))))))) | 50.7 °C
CGACGTGCTGTATGTGCTG+CAGCACATCAGGCACGTCG ((((((((...((((((((+))))))))...)))))))) | 51.7 °C
CGACGTGCGCTATGTGCTG+CAGCACATCCTGCACGTCG ((((((((...((((((((+))))))))...)))))))) | 48.1 °C
CGACGTGCTGCATGTGCTG+CAGCACATGCAGCACGTCG (((((((((((((((((((+))))))))))))))))))) | 67.5 °C
CGACGTGCCTTATGTGCTG+CAGCACATGTCGCACGTCG ((((((((...((((((((+))))))))...)))))))) | 47.8 °C
CGACGTGCGTGATGTGCTG+CAGCACATTAAGCACGTCG ((((((((.(.((((((((+)))))))).).)))))))) | 54.5 °C
CGACGTGCGCGATGTGCTG+CAGCACATTCGGCACGTCG ((((((((...((((((((+))))))))...)))))))) | 53.2 °C
CGACGTGCGGAATGTGCTG+CAGCACATCAAGCACGTCG ((((((((...((((((((+))))))))...)))))))) | 53.8 °C

Substance | Tm
CGACGTGCTCTATGTGCTG+CAGCACATTTTGCACGTCG ((((((((...((((((((+))))))))...)))))))) | 49 °C
CGACGTGCTCGATGTGCTG+CAGCACATAGGGCACGTCG ((((((((.(.((((((((+)))))))).).)))))))) | 55.4 °C
CGACGTGCCTAATGTGCTG+CAGCACATAACGCACGTCG ((((((((.(.((((((((+)))))))).).)))))))) | 48.2 °C
CGACGTGCATTATGTGCTG+CAGCACATGTTGCACGTCG (((((((((..((((((((+))))))))..))))))))) | 52.2 °C
CGACGTGCTTAATGTGCTG+CAGCACATTTCGCACGTCG ((((((((..(((((((((+)))))))))..)))))))) | 51 °C
CGACGTGCTCGATGTGCTG+CAGCACATTGAGCACGTCG ((((((((((.((((((((+)))))))).)))))))))) | 60.7 °C
CGACGTGCAATATGTGCTG+CAGCACATCCAGCACGTCG ((((((((...((((((((+))))))))...)))))))) | 48.1 °C
CGACGTGCATGATGTGCTG+CAGCACATGCGGCACGTCG ((((((((...((((((((+))))))))...)))))))) | 48 °C
CGACGTGCATGATGTGCTG+CAGCACATAATGCACGTCG ((((((((((.((((((((+)))))))).)))))))))) | 56 °C
CGACGTGCCCCATGTGCTG+CAGCACATCATGCACGTCG ((((((((...((((((((+))))))))...)))))))) | 46.5 °C
CGACGTGCACTATGTGCTG+CAGCACATTTGGCACGTCG ((((((((...((((((((+))))))))...)))))))) | 45.3 °C
CGACGTGCGGGATGTGCTG+CAGCACATGACGCACGTCG (((((((((..((((((((+))))))))..))))))))) | 57.6 °C
CGACGTGCACCATGTGCTG+CAGCACATAAAGCACGTCG ((((((((...((((((((+))))))))...)))))))) | 45 °C
CGACGTGCCGAATGTGCTG+CAGCACATGGCGCACGTCG ((((((((...((((((((+))))))))...)))))))) | 51.5 °C
CGACGTGCCAGATGTGCTG+CAGCACATCGAGCACGTCG ((((((((..(((((((((+)))))))))..)))))))) | 56.2 °C
CGACGTGCGATATGTGCTG+CAGCACATCGCGCACGTCG (((((((((..((((((((+))))))))..))))))))) | 53.6 °C
CGACGTGCGTGATGTGCTG+CAGCACATTTAGCACGTCG ((((((((...((((((((+))))))))...)))))))) | 53.6 °C
CGACGTGCACCATGTGCTG+CAGCACATAGCGCACGTCG ((((((((.(.((((((((+)))))))).).)))))))) | 46.1 °C
CGACGTGCGACATGTGCTG+CAGCACATGGTGCACGTCG ((((((((..(((((((((+)))))))))..)))))))) | 57.3 °C
CGACGTGCACCATGTGCTG+CAGCACATCATGCACGTCG (((((((((..((((((((+))))))))..))))))))) | 45.6 °C
CGACGTGCATCATGTGCTG+CAGCACATCGAGCACGTCG ((((((((...((((((((+))))))))...)))))))) | 48.9 °C
CGACGTGCAATATGTGCTG+CAGCACATGAAGCACGTCG ((((((((...((((((((+))))))))...)))))))) | 52.3 °C
CGACGTGCATCATGTGCTG+CAGCACATGTGGCACGTCG ((((((((..(((((((((+)))))))))..)))))))) | 55 °C
CGACGTGCGTGATGTGCTG+CAGCACATTGGGCACGTCG ((((((((...((((((((+))))))))...)))))))) | 52.3 °C

Substance | Tm
CGACGTGCTTTATGTGCTG+CAGCACATCTTGCACGTCG ((((((((...((((((((+))))))))...)))))))) | 48.5 °C
CGACGTGCGGCATGTGCTG+CAGCACATAGAGCACGTCG ((((((((...((((((((+))))))))...)))))))) | 56.4 °C
CGACGTGCCCGATGTGCTG+CAGCACATGGCGCACGTCG ((((((((.(.((((((((+)))))))).).)))))))) | 53.3 °C
CGACGTGCACAATGTGCTG+CAGCACATCAAGCACGTCG ((((((((...((((((((+))))))))...)))))))) | 46.2 °C
CGACGTGCCAGATGTGCTG+CAGCACATCGCGCACGTCG ((((((((..(((((((((+)))))))))..)))))))) | 55.4 °C
CGACGTGCCTTATGTGCTG+CAGCACATGACGCACGTCG ((((((((.(.((((((((+)))))))).).)))))))) | 45.4 °C
CGACGTGCCGGATGTGCTG+CAGCACATCAAGCACGTCG ((((((((..(((((((((+)))))))))..)))))))) | 54.8 °C
CGACGTGCGTTATGTGCTG+CAGCACATTCTGCACGTCG ((((((((...((((((((+))))))))...)))))))) | 50 °C
CGACGTGCCTGATGTGCTG+CAGCACATATCGCACGTCG ((((((((...((((((((+))))))))...)))))))) | 47.7 °C
CGACGTGCCCCATGTGCTG+CAGCACATTCTGCACGTCG ((((((((...((((((((+))))))))...)))))))) | 46.9 °C
CGACGTGCCTTATGTGCTG+CAGCACATAATGCACGTCG ((((((((.((((((((((+)))))))))).)))))))) | 53.7 °C
CGACGTGCTTAATGTGCTG+CAGCACATATGGCACGTCG ((((((((...((((((((+))))))))...)))))))) | 51.4 °C
CGACGTGCCAAATGTGCTG+CAGCACATGAAGCACGTCG ((((((((...((((((((+))))))))...)))))))) | 51.2 °C
CGACGTGCTTTATGTGCTG+CAGCACATTAAGCACGTCG ((((((((((.((((((((+)))))))).)))))))))) | 55.2 °C
CGACGTGCGGAATGTGCTG+CAGCACATCGTGCACGTCG ((((((((...((((((((+))))))))...)))))))) | 46.7 °C
CGACGTGCGACATGTGCTG+CAGCACATCTCGCACGTCG ((((((((((.((((((((+)))))))).)))))))))) | 55.4 °C
CGACGTGCTCGATGTGCTG+CAGCACATGGCGCACGTCG ((((((((.(.((((((((+)))))))).).)))))))) | 50.8 °C
CGACGTGCTGTATGTGCTG+CAGCACATTCAGCACGTCG ((((((((((.((((((((+)))))))).)))))))))) | 57.5 °C
CGACGTGCTTCATGTGCTG+CAGCACATACGGCACGTCG ((((((((...((((((((+))))))))...)))))))) | 47.7 °C
CGACGTGCGGTATGTGCTG+CAGCACATCAAGCACGTCG ((((((((...((((((((+))))))))...)))))))) | 54 °C
CGACGTGCCCAATGTGCTG+CAGCACATAACGCACGTCG ((((((((...((((((((+))))))))...)))))))) | 47.3 °C
CGACGTGCGTTATGTGCTG+CAGCACATTCAGCACGTCG ((((((((...((((((((+))))))))...)))))))) | 52.1 °C
CGACGTGCATCATGTGCTG+CAGCACATTGGGCACGTCG ((((((((...((((((((+))))))))...)))))))) | 50 °C
CGACGTGCCGGATGTGCTG+CAGCACATCTAGCACGTCG ((((((((..(((((((((+)))))))))..)))))))) | 55 °C
